In paper PMC12639820, “Antifactor H Autoantibody Characterization in Atypical Hemolytic Uremic Syndrome” (Kidney International Reports, 2025):

Target: T1, purified human C3b (human, UniProt P01024 23-667; P01024 749-1663)
T1 construct: C3b is the two-chain cleavage product of C3; source: purified human C3b
Experiment: ELISA; C3b (5 ug/ml) or C3d (5 ug/ml) coated on wells; purified biotinylated human FH (6 ug/ml) preincubated in solution with different amounts of total IgG from patient serum (kAb) or NHS
Conditions: both partners purified

T1 sequence (P01024 23-667, chain 1 of 2): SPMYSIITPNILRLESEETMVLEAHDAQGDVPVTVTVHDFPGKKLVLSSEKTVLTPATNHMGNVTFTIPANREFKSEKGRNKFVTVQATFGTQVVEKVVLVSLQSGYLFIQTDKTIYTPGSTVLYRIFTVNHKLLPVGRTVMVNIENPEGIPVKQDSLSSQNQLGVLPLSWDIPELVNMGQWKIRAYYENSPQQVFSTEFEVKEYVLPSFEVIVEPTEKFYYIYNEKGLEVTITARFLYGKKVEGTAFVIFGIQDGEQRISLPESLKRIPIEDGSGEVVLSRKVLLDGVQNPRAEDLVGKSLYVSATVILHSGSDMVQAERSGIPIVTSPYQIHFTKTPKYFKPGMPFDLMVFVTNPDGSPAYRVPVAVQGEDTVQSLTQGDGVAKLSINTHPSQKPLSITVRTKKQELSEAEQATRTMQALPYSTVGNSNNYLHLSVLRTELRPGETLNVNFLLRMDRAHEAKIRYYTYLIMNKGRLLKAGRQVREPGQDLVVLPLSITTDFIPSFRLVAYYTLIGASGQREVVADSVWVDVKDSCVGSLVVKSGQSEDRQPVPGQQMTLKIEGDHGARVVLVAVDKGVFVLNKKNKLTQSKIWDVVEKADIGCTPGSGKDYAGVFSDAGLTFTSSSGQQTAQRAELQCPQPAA
T1 sequence (P01024 749-1663, chain 2 of 2): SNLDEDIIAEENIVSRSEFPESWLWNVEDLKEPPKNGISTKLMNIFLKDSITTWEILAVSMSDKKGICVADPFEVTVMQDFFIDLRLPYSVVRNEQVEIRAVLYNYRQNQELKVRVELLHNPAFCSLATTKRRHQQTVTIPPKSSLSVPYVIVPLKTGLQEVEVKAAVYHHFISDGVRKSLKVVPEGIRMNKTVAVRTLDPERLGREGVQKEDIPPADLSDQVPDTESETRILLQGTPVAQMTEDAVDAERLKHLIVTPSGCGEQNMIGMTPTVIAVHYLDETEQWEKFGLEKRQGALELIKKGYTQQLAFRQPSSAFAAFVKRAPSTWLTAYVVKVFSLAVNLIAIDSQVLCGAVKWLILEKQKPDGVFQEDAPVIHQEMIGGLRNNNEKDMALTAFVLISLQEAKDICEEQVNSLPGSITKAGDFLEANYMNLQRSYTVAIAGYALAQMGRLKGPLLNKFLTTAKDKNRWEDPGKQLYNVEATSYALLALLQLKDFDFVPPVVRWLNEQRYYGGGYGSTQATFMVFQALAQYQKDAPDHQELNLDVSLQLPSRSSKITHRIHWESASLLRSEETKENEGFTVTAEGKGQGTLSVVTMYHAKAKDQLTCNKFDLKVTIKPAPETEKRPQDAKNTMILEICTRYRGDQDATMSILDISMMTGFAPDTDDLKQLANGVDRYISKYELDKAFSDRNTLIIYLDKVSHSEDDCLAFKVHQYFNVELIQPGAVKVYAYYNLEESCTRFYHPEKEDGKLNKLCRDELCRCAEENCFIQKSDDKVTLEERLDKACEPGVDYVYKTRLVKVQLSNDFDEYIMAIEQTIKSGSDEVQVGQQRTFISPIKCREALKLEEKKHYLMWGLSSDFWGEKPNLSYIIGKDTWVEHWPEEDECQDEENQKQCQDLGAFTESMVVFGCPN

binding result: binds
B1: purified biotinylated human factor H (natural protein, UniProt P08603 19-1231, looked up)
chain: EDCNELPPRRNTEILTGSWSDQTYPEGTQAIYKCRPGYRSLGNVIMVCRKGEWVALNPLRKCQKRPCGHPGDTPFGTFTLTGGNVFEYGVKAVYTCNEGYQLLGEINYRECDTDGWTNDIPICEVVKCLPVTAPENGKIVSSAMEPDREYHFGQAVRFVCNSGYKIEGDEEMHCSDDGFWSKEKPKCVEISCKSPDVINGSPISQKIIYKENERFQYKCNMGYEYSERGDAVCTESGWRPLPSCEEKSCDNPYIPNGDYSPLRIKHRTGDEITYQCRNGFYPATRGNTAKCTSTGWIPAPRCTLKPCDYPDIKHGGLYHENMRRPYFPVAVGKYYSYYCDEHFETPSGSYWDHIHCTQDGWSPAVPCLRKCYFPYLENGYNQNYGRKFVQGKSIDVACHPGYALPKAQTTVTCMENGWSPTPRCIRVKTCSKSSIDIENGFISESQYTYALKEKAKYQCKLGYVTADGETSGSITCGKDGWSAQPTCIKSCDIPVFMNARTKNDFTWFKLNDTLDYECHDGYESNTGSTTGSIVCGYNGWSDLPICYERECELPKIDVHLVPDRKKDQYKVGEVLKFSCKPGFTIVGPNSVQCYHFGLSPDLPICKEQVQSCGPPPELLNGNVKEKTKEEYGHSEVVEYYCNPRFLMKGPNKIQCVDGEWTTLPVCIVEESTCGDIPELEHGWAQLSSPPYYYGDSVEFNCSESFTMIGHRSITCIHGVWTQLPQCVAIDKLKKCKSSNLIILEEHLKNKKEFDHNSNIRYRCRGKEGWIHTVCINGRWDPEVNCSMAQIQLCPPPPQIPNSHNMTTTLNYRDGEKVSVLCQENYLIQEGEEITCKDGRWQSIPLCVEKIPCSQPPQIEHGTINSSRSSQESYAHGTKLSYTCEGGFRISEENETTCYMGKWSSPPQCEGLPCKSPPEISHGVVAHMSDSYQYGEEVTYKCFEGFGIDGPAIAKCLGEKWSHPPSCIKTDCLSLPSFENAIPMGEKKDVYKAGEQVTYTCATYYKMDGASNVTCINSRWTGRPTCRDTSCVNPPTVQNAYIVSRQMSKYPSGERVRYQCRSPYEMFGDEEVMCLNGNWTEPPQCKDSTGKCGPPPPIDNGDITSFPLSVYAPASSVEYQCQNLYQLEGNKRITCRNGQWSEPPKCLHPCVISREIMENYNIALRWTAKQKLYSRTGESVEFVCKRGYRLSSRSHTLRTTCWDGKLEYPTCAKR
modifications: biotin (biotinylated; sites not stated)
notes: complement factor H, human, 155 kDa serum protein of 20 CCP domains; purified human protein; also called FH; source: purified human FH, biotinylated
